Measurements reported in patent publication US20250002574A1 (SUNSHINE LAKE PHARMA, published 2025).

T1: recombinant OSM (Genscript-z03132) (UniProt P13725 26-221, limits assumed)
T1 sequence (looked up): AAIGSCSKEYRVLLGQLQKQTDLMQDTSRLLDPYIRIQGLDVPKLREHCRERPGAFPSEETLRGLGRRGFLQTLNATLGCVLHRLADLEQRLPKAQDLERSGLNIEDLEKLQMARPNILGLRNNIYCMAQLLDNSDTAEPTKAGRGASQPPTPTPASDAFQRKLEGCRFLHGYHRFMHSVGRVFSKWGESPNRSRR

T2: recombinant CLC (R&D systems, 962-CL-050) (UniProt Q9UBD9 28-225)
T2 sequence (looked up): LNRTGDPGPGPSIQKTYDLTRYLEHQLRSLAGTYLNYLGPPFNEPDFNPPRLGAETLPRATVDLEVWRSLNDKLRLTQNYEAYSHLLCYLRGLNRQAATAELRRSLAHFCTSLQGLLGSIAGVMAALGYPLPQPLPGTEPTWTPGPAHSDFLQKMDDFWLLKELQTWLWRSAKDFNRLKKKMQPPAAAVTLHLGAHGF

T3: recombinant IL-31 (Peprotech, 200-31) (UniProt Q6EBC2 24-164)
T3 sequence (looked up): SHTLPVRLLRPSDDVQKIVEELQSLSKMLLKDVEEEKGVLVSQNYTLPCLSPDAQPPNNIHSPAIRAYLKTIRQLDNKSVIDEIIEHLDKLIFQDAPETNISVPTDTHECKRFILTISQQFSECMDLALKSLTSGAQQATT

T4: recombinant CNTF (R&D systems, 257-NT-010) (UniProt P26441 2-200)
T4 sequence (looked up): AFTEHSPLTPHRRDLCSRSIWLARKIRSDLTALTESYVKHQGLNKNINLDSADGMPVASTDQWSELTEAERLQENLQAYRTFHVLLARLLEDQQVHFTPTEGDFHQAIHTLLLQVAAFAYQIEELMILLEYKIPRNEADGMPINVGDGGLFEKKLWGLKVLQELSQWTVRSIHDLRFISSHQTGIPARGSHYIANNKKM

T5: recombinant CT-1 (R&D systems, 612-CD-010) (UniProt Q16619 2-201)
T5 sequence (looked up): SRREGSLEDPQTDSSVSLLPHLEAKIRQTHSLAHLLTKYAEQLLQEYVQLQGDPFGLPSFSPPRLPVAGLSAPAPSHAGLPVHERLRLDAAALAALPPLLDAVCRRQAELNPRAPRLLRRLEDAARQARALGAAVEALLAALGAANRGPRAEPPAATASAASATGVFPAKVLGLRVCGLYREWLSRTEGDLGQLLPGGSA

T6: recombinant IL-27 (R&D systems, 2526-IL-010) (UniProt Q8NEV9 29-243; Q14213 21-229)
T6 construct: the bought product may be a single-chain fusion
T6 sequence (looked up) 1: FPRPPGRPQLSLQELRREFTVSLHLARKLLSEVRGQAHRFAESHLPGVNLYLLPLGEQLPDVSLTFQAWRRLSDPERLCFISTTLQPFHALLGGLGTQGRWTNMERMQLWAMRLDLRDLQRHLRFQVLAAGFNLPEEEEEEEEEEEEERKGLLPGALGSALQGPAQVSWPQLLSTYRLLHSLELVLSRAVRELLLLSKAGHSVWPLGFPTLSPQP
T6 sequence (looked up) 2: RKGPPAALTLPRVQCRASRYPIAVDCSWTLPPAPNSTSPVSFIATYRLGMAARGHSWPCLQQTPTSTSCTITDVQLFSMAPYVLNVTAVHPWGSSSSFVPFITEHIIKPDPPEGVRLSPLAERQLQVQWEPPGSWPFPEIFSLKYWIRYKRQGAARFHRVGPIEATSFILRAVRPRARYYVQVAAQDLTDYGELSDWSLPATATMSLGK

T7: recombinant IL-11 (LSBio, LS-G132887-10) (UniProt P20809 22-199)
T7 sequence (looked up): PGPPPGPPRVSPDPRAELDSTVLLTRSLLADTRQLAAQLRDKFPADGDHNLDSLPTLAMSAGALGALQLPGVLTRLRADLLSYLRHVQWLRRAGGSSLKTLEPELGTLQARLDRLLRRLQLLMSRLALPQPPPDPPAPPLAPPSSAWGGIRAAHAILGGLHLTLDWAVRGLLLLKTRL

T8: recombinant human protein antigen hu-IL-11-His tag (human, UniProt P20809 22-199)
T8 construct: also called IL-11-His protein; not shown: His tag
T8 sequence (looked up): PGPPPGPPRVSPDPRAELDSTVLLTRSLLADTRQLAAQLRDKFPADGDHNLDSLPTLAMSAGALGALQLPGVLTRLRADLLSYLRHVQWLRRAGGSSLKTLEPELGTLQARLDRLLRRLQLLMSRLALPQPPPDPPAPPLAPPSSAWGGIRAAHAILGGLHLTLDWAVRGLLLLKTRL

T9: IL-11-Fc protein (UniProt P20809 22-199, limits assumed)
T9 construct: also called IL-11 recombinant protein with Fc tag; not shown: Fc tag
T9 sequence (looked up): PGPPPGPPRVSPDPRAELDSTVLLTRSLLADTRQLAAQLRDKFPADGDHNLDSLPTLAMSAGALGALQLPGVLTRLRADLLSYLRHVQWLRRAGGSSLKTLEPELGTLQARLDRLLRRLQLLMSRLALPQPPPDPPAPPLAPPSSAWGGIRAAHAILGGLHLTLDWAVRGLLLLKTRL

B1: 5-20E11-5F2 (recombinant, expressed in CHO, Example 6) (antibody, human IgG1, kappa, V domains shown)
VH: QVQLQQSGAELVRPGTSAKISCKASDYTFTNYWLGWLKQRPGHGLEWIGHIYPGGGYTNYNEKFKGKATLTADTSSSTAYMQLSSLTSEDSAVYFCARVRSGNDALDFWGQGTSVTVSS
VL: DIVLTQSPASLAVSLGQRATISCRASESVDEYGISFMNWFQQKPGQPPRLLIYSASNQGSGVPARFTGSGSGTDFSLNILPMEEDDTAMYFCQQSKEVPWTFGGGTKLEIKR
B2: 3-6A4 (recombinant, expressed in CHO, Example 6) (antibody, human IgG1, kappa, V domains shown)
VH: QIQLVQSGPELKKPGETVKISCKASGYTFTTNGINWVKQAAGKGLKWMGWINTNTGEPTNAEELKGRFAFSLETSASTAYLQINNLKNEDAAIYFCAREGAFGLDYWGQGTSVTVSS
VL: SIVMTQSPKFLLVSAGDRVIITCKASQSVSNDVVWYQQKPGQSPKLLIYYGSHRNTGVPTRFTGSGYGTDFTFTISTVQAEDLAVYFCQQDFFSPWTFGGGTKLEIKR

Columns and labels:
[1] = target: T1, recombinant OSM (Genscript-z03132); test: ELISA, cytokine coated
[2] = target: T2, recombinant CLC (R&D systems, …); test: ELISA, cytokine coated
[3] = target: T10, recombinant LIF (Peprotech, 300-05) (UniProt P15018 23-202); test: ELISA, cytokine coated
T10 sequence (P15018 23-202 limits assumed): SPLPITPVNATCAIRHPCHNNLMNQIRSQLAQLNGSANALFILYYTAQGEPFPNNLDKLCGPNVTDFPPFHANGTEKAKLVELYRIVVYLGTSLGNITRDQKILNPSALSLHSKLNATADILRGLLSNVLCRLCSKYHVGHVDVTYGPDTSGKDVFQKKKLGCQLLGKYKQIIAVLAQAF

[4] = target: T3, recombinant IL-31 (Peprotech, 200-31); test: ELISA, cytokine coated
[5] = target: T4, recombinant CNTF (R&D systems, …); test: ELISA, cytokine coated
[6] = target: T5, recombinant CT-1 (R&D systems, …); test: ELISA, cytokine coated
[7] = target: T11, recombinant IL-6 (Sinobiological-10395-HNAE) (UniProt P05231 30-212); test: ELISA, cytokine coated
[8] = target: T6, recombinant IL-27 (R&D systems, …); test: ELISA, cytokine coated
[9] = target: T1, recombinant OSM (Genscript-z03132); test: ELISA, cytokine coated; remark: listed apart in the source
[10] = target: T2, recombinant CLC (R&D systems, …); test: ELISA, cytokine coated; remark: listed apart in the source
[11] = target: T10, recombinant LIF (Peprotech, 300-05); test: ELISA, cytokine coated; remark: listed apart in the source
[12] = target: T3, recombinant IL-31 (Peprotech, 200-31); test: ELISA, cytokine coated; remark: listed apart in the source
[13] = target: T4, recombinant CNTF (R&D systems, …); test: ELISA, cytokine coated; remark: listed apart in the source
[14] = target: T5, recombinant CT-1 (R&D systems, …); test: ELISA, cytokine coated; remark: listed apart in the source
[15] = target: T7, recombinant IL-11 (LSBio, LS-G132887-10); test: ELISA, cytokine coated
[16] = target: T11, recombinant IL-6 …; test: ELISA, cytokine coated; remark: listed apart in the source
[17] = target: T6, recombinant IL-27 (R&D systems, …); test: ELISA, cytokine coated; remark: listed apart in the source
[18] = target: T8, recombinant human protein antigen …; test: BLI (Octet QKe), IL-11 (His tag) on Ni-NTA sensor, antibody as analyte
Method: The analytes were diluted in 7 concentration gradients, the binding time was 60 s and the dissociation time was 1000 s. The buffer was 20 mM PBS, 0.15M NaCl, 0.1% BSA, 0.05% Tween 20, pH 7.4. […] In this example, Pall ForteBio (Octet QKe) instrument was used to determine the affinity of antibodies for antigens.

IL-11-Fc protein = target: T9, IL-11-Fc protein; test: flow cytometry competition: IL-11-Fc plus antibody on membrane-IL-11R CHO cells
Description: The secondary antibody (Goat-anti-Fc-FITC) (Abcam, ab98529) conjugated with FITC fluorophore was used for detection.

Binder | binding result [1] | binding result [2] | binding result [3] | binding result [4] | binding result [5] | binding result [6] | binding result [7] | binding result [8] | OD450 nm [9] | OD450 nm [10] | OD450 nm [11] | OD450 nm [12] | OD450 nm [13] | OD450 nm [14] | OD450 nm [15] | OD450 nm [16] | OD450 nm [17] | Kd [18] | koff [18] | kon [18] | other results
B1 | no binding | no binding | no binding | no binding | no binding | no binding | no binding | no binding | 0.045 OD450 | 0.033 OD450 | 0.037 OD450 | 0.036 OD450 | 0.036 OD450 | 0.034 OD450 | 1.93 OD450 | 0.049 OD450 | 0.048 OD450 | 0.069 nM | 1.21e-05 s⁻¹ | 175000 M⁻¹ s⁻¹ | IC50 (IL-11-Fc protein): ~21 µg/mL
B2 | no binding | no binding | no binding | no binding | no binding | no binding | no binding | no binding | 0.102 OD450 | 0.042 OD450 | 0.084 OD450 | 0.088 OD450 | 0.064 OD450 | 0.041 OD450 | 1.88 OD450 | 0.039 OD450 | 0.035 OD450 | 0.0393 nM | 4.16e-05 s⁻¹ | 1.06e+06 M⁻¹ s⁻¹ | IC50 (IL-11-Fc protein): ~7 µg/mL
